Patent publication US20230295271A1 (UNIVERSITY OF SOUTHERN CALIFORNIA, published 2023)

Tests used:
[1] = biological target: T1, human Glucagon-like peptide-1 receptor (GLP-1R), purified His6-tagged protein (human, UniProt P43220 24-463, limits assumed); assay: titration ELISA, GLP-1R coated on the plate, purified scFv titrated; apparent Kd
T1 construct: Recombinant human His6-tagged GLP-1R purified from Sf9 biomass and immobilised on the plate for ELISA; also called purified GLP-1R protein

[2] = biological target: T1, human Glucagon-like peptide-1 receptor …; assay: titration ELISA, apparent Kd compared with the parental scFv
[3] = biological target: T2, human fatty acid amide hydrolase (FAAH), amino acids 30-579 (human, UniProt O00519 30-579); assay: SPR (Biacore T100), compared with parent A3 nanobody
T2 construct: range 30-579; Expressed in E. coli as an MBP fusion; The MBP tag was cleaved with Factor Xa, and SPR used the untagged FAAH; also called untagged FAAH; purified human FAAH protein
T2 sequence (looked up): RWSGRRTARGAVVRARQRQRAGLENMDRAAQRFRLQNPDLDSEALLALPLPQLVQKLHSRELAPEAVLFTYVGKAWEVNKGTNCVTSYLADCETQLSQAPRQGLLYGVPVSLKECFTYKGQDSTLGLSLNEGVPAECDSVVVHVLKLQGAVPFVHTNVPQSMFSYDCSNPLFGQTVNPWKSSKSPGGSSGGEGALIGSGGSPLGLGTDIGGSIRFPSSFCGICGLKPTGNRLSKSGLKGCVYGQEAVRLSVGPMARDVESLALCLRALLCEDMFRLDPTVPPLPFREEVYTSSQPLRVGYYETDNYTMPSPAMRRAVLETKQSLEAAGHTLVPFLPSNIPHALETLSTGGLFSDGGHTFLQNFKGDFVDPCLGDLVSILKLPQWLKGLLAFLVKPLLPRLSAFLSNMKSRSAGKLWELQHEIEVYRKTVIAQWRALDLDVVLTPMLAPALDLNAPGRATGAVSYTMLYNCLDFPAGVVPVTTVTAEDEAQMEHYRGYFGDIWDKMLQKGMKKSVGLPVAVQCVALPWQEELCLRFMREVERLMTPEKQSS
Method: (§1) In some cases, scFv/VHH were further purified by gel filtration using Superdex 75 column (GE Healthcare). Proteins were concentrated using Amicon Ultra-15 10 kDa centrifugal filter unit (Millipore) and stored in PBS at −70° C. Titration ELISA. Titration ELISA was used to measure binding of purified scFv to GLP-1R. GLP-1R immobilization in a 96 well plate and blocking was carried out as described for phage ELISA. A purified scFv was prepared at varying concentrations (from 1 nM to 3 μM) in 2% MPBS. 100 μl scFv aliquot of each concentration was added to a well and incubated at RT for 1.5 h. The plate was then washed with TPBS and PBS three times each. Primary anti His-tag Mouse mAb (Cell signaling Technology, Inc.) was diluted 1:250 in 2% MPBS and added into each well. […] The absorbance was read at 450 nm, using SpectraMax iD5 microplate reader (Molecular Devices, LLC). The dissociation constant Kd was calculated according to a published protocol. […] Binding of purified VHH nanobodies to Artemin and to untagged FAAH proteins was determined using Biacore T100 instrument (GE Healthcare). […] Kinetic constants for binding interaction were determined by fitting the sensorgrams with 1:1 binding model using Biacore T100 evaluation software, version 2.0 (GE healthcare).

[4] = biological target: T2, human fatty acid amide hydrolase …; assay: SPR (Biacore T100), purified VHH and untagged FAAH, 1:1 model
Method: as §1

[5] = biological target: T3, recombinant mouse artemin protein (Ala112-Gly224 fragment) (mouse, UniProt Q9Z0L2 112-224); assay: SPR (Biacore T100), purified VHH and mouse artemin, 1:1 model
T3 construct: range 112-224; Bought as lyophilized powder from R&D Systems
T3 sequence (looked up): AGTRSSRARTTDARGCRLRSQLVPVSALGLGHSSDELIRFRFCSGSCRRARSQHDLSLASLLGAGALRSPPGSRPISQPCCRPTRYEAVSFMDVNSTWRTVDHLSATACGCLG
Method: as §1

B1: GHM33 scFv (scFv)
scFv: VQLVQSGAEVKKPGSSVKVSCKASGGTFSSYAISWVRQAPGQGLEWMGGIIPIFGTANYAQKFQGRVTITADESTSTAYMELSSLRSEDTAVYYCARGRDDYYDSSAFDYWGQGTLVTVGGGGSGGGGSGGGGSGGGGSVLTQPPSVSVAPGQTARVTCGGNKIGSYSVYWYQHKPGQAPVLVVYDDSDRPSGIPERFSGSNSGNMATLTISGVEAGDEADYYCQVWDCTTDDVIFGGGTKLTVLHHHHHH
notes: Purified soluble His6-tagged scFv expressed from pADL-20c in the E. coli periplasm; The printed VH and VL start at the second residue and stop before the end of the J region; also called mutated scFv clone (GHM33); anti-GLP-1R scFv
Kd [1]: 100 nM | fold lower Kd than the parental scFv [2]: ~3 fold

B2: OD1 VHH nanobody (VHH)
VHH: VQLVESGGGLVQAGGSLRLSCAASGRTFSDNTMAWHRQGPGKQRGLVAFITTGGRTVYTDSVKGRFIISRDNAKNTGFLQMNSLKPEDTAVYYCYVAGNWGQGTQVTVHH
notes: Purified soluble His6-tagged llama VHH; also called mutated VHH clone (OD1)
fold increase in FAAH affinity compared to parent VHH A3 [3]: ~2.4 fold | Kd [4]: 0.65 nM

B3: LM52 VHH nanobody (VHH)
VHH: VQLVESGGGLVQAGASLRLSCAASGGTLVNSSMGWFRQAPGKERDFVATINWRGDTTWYGESVKGRFSISRDNTKNMVYLQMNSLKPEDTAVYYCAVYRTRYYTGRRMMSPDEYDVWGQGTQVTVHH
notes: From the mutagenized llama VHH library; likely a mutant variant of LU5
Kd [5]: 102 nM
